Data from patent US20180274003.

Tests used:
[1] = target: T1, Peptide 1 YKN-thioglc-V (thiodepsipeptide 1)
T1 chain: YKNXV

[2] = target: T2, Peptide 2 YKN-glc-V (depsipeptide 2)
T2 chain: YKNXV

Peptide 3 YKNHV = target: T3, Peptide 3 YKNHV
T3 chain: YKNHV

Peptide 4 YKNGV = target: T4, Peptide 4 YKNGV
T4 chain: YKNGV

B1: butelase 1 (protein)
chain: VEGTRWAVLVAGSKGYVNYRHQADVCHAYQILKKGGLKDENIIVFMYDDIAYNESNPHPGVIINHPYGSDVYKGVPKDYVGEDINPPNFYAVLLANKSALTGTGSGKVLDSGPNDHVFIYYTDHGGAGVLGMPSKPYIAASDLNDVLKKKHASGTYKSIVFYVESCESGSMFDGLLPEDHNIYVMGASDTGESSWVTYCPLQHPSPPPEYDVCVGDLFSVAWLEDCDVHNLQTETFQQQYEVVKNKTIVALIEDGTHVVQYGDVGLSKQTLFVYMGTDPANDNNTFTDKNSLGTPRKAVSQRDADLIHYWEKYRRAPEGSSRKAEAKKQLREVMAHRMHIDN
Km [1]: 2760 µM | kcat [1]: 56.5 s⁻¹ | kcat/Km [1]: 20500 M⁻¹ s⁻¹ | Km [2]: 740 µM | kcat [2]: 12.4 s⁻¹ | kcat/Km [2]: 16800 M⁻¹ s⁻¹ | Km (Peptide 3 YKNHV): 300 µM | kcat (Peptide 3 YKNHV): 4.1 s⁻¹ | kcat/Km (Peptide 3 YKNHV): 13500 M⁻¹ s⁻¹ | Km (Peptide 4 YKNGV): 880 µM | kcat (Peptide 4 YKNGV): 7.9 s⁻¹ | kcat/Km (Peptide 4 YKNGV): 8900 M⁻¹ s⁻¹
